Literature values as cited in PMC10280637.

Biological target: IL-17A (Homo sapiens) (UniProt Q16552)
Sequence (Q16552 24-155): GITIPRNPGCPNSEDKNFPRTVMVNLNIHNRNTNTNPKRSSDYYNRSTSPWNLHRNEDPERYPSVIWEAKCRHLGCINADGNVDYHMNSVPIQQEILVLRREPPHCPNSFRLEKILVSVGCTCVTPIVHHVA

Kd: 0.06 nM
Substance: Secukinumab
